According to patent publication US20210395344A1 (TWIST BIOSCIENCE, published 2021):

B1: SARS-CoV-2 variant 1-38 (antibody, V domains shown)
VH: EVQLLESGGGLVQPGGSLRLSCAASGITFSSYAMSWVRQAPGKGLEWVSGISGSGGSTYYADSVKGRFTISRDNSKNTLYLQMNSLRAEDTAVYYCAKHGSGTIFGVVIAKYYFDYWGQGTLVTVSS
VL: QSALTQPASVSGSPGQSITISCTGTSSDIGSYNLVSWYQQHPGKAPKLMIYEGTKRPSGVSNRFSGSKSGNTASLTISGLQAEDEADYYCCSYAGSRTYVFGGGTKLTVL
B2: SARS-CoV-2 variant 1-42 (antibody, V domains shown)
VH: EVQLLESGGGLVQPGGSLRLSCAASGVTFSSYAMSWVRQAPGKGLEWVSAITGSGGSTYYADSVKGRFTISRDNSKNTLYLQMNSLRAEDTAVYYCAKHGSGTIFGVVIAKYYFDYWGQGTLVTVSS
VL: QSALTQPASVSGSPGQSITISCTGTSSDVGRYNLVSWYQQHPGKAPKLMIYEGGKRPSGVSNRFSGSKSGNTASLTISGLQAEDEADYYCCSYASSSTLVFGGGTKLTVL
B3: SARS-CoV-2 variant 1-22 (antibody, V domains shown)
VH: EVQLLESGGGLVQPGGSLRLSCAASGFTFSSYAMNWVRQAPGKGLEWVSIISGSGGSTYYADSVKGRFTISRDNSKNTLYLQMNSLRAEDTAVYYCAREGYRDYLWYFDLWGQGTLVTVSS
VL: QSALTQPASVSGSPGQSITISCTGTSTDVGSYNLVSWYQQHPGKAPKLMIYEGSQRPSGVSNRFSGSKSGNTASLTISGLQAEDEADYYCCSYAGSSTVFGGGTKLTVL
B4: SARS-CoV-2 variant 1-21 (antibody, V domains shown)
VH: EVQLLESGGGLVQPGGSLRLSCAASGFTFSSYTMSWVRQAPGKGLEWVSIISGSGGSTYYADSVKGRFTISRDNSKNTLYLQMNSLRAEDTAVYYCAREGYRDYLWYFDLWGQGTLVTVSS
VL: QSALTQPASVSGSPGQSITISCTGTSSDVGSNNLVSWYQQHPGKAPKLMIYEGNKRPSGVSNRFSGSKSGNTASLTISGLQAEDEADYYCCSYAGSVVFGGGTKLTVL
B5: SARS-CoV-2 variant 1-23 (antibody, V domains shown)
VH: EVQLLESGGGLVQPGGSLRLSCAASGFTFSSYAISWVRQAPGKGLEWVSIISGSGGSTYYADSVKGRFTISRDNSKNTLYLQMNSLRAEDTAVYYCAREGYRDYLWYFDLWGQGTLVTVSS
VL: QSALTQPASVSGSPGQSITISCTGTSNDVGSYNLVSWYQQHPGKAPKLMIYEGNKRPSGVSNRFSGSKSGNTASLTISGLQAEDEADYYCCSYAGSYTVFGGGTKLTVL
B6: SARS-CoV-2 variant 1-24 (antibody, V domains shown)
VH: EVQLLESGGGLVQPGGSLRLSCAASGFTFSSYAMNWVRQAPGKGLEWVSIISGSGGSTYYADSVKGRFTISRDNSKNTLYLQMNSLRAEDTAVYYCAREGYRDYLWYFDLWGQGTLVTVSS
VL: QSALTQPASVSGSPGQSITISCTGTSSDVGYYNLVSWYQQHPGKAPKLMIYEGNKRPSGVSNRFSGSKSGNTASLTISGLQAEDEADYYCCSYAGGSVVFGGGTKLTVL
B7: SARS-CoV-2 variant 1-32 (antibody, V domains shown)
VH: EVQLLESGGGLVQPGGSLRLSCAASGFTFSSYAMYWVRQAPGKGLEWVSAISGSGGSTFYADSVKGRFTISRDNSKNTLYLQMNSLRAEDTAVYYCTRPPYGDYGDYWGQGTLVTVSS
VL: QSALTQPASVSGSPGQSITISCTGTSSDVGGYNLVSWYQQHPGKAPKLMIYEGNKRPSGVSNRFSGSKSGNTASLTISGLQAEDEADYYCCSYAGSSTFPVVFGGGTKLTVL
B8: SARS-CoV-2 variant 1-10 (antibody, V domains shown)
VH: EVQLLESGGGLVQPGGSLRLSCAASGFTFSSYDMSWVRQAPGKGLEWVSVISGSGGSTYYADSVKGRFTISRDNSKNTLYLQMNSLRAEDTAVYYCAKGPLVGWYFDLWGQGTLVTVSS
VL: QSALTQPASVSGSPGQSITISCTGTSSNVGSYNLVSWYQQHPGKAPKLMIYEGTKRPSGVSNRFSGSKSGNTASLTISGLQAEDEADYYCCSYAGSSSFVVFGGGTKLTVL
B9: SARS-CoV-2 variant 1-2 (antibody, V domains shown)
VH: EVQLLESGGGLVQPGGSLRLSCAASGFTFSSQAMSWVRQAPGKGLEWVSAISGSGGGTYYADSVKGRFTISRDNSKNTLYLQMNSLRAEDTAVYYCAKDRRFGEFDPWGQGTLVTVSS
VL: QSALTQPASVSGSPGQSITISCTGTSSGVGSYNLVSWYQQHPGKAPKLMIYEGIKRPSGVSNRFSGSKSGNTASLTISGLQAEDEADYYCCSYAGSSSFVVFGGGTKLTVL
B10: SARS-CoV-2 variant 1-30 (antibody, V domains shown)
VH: EVQLLESGGGLVQPGGSLRLSCAASGFTFSSYAMTWVRQAPGKGLEWVSAISGSGGSTFYADSVKGRFTISRDNSKNTLYLQMNSLRAEDTAVYYCTRPPYGDYGDYWGQGTLVTVSS
VL: QSALTQPASVSGSPGQSITISCTGTSRDVGSYNLVSWYQQHPGKAPKLMIYEGTKRPSGVSNRFSGSKSGNTASLTISGLQAEDEADYYCCSYAGSRTPVVFGGGTKLTVL
B11: SARS-CoV-2 variant 1-8 (antibody, V domains shown)
VH: EVQLLESGGGLVQPGGSLRLSCAASGFTFSSYDMSWVRQAPGKGLEWVSVISGSGGSTYYADSVKGRFTISRDNSKNTLYLQMNSLRAEDTAVYYCAKGPLVGWYFDLWGQGTLVTVSS
VL: QSALTQPASVSGSPGQSITISCTGTSNDVGSYNLVSWYQQHPGKAPKLMIYEGSKRPSGVSNRFSGSKSGNTASLTISGLQAEDEADYYCCSYAGSRYVVFGGGTKLTVL
B12: SARS-CoV-2 variant 1-27 (antibody, V domains shown)
VH: EVQLLESGGGLVQPGGSLRLSCAASGFTFSSYAMTWVRQAPGKGLEWVSAISGSGGGTYYADSVKGRFTISRDNSKNTLYLQMNSLRAEDTAVYYCASSSSWQFDYWGQGTLVTVSS
VL: QSALTQPASVSGSPGQSITISCTGTSSYVGHYNLVSWYQQHPGKAPKLMIYEGSRRPSGVSNRFSGSKSGNTASLTISGLQAEDEADYYCCSYAGSYTHYVFGGGTKLTVL
B13: SARS-CoV-2 variant 1-7 (antibody, V domains shown)
VH: EVQLLESGGGLVQPGGSLRLSCAASGFTFSSYDMSWVRQAPGKGLEWVSVISGSGGSTYYADSVKGRFTISRDNSKNTLYLQMNSLRAEDTAVYYCAKGPLVGWYFDLWGQGTLVTVSS
VL: QSALTQPASVSGSPGQSITISCTGTSSDFGSYNLVSWYQQHPGKAPKLMIYEGNKRPSGVSNRFSGSKSGNTASLTISGLQAEDEADYYCCSYAGSSTFVVFGGGTKLTVL
B14: SARS-CoV-2 variant 1-4 (antibody, V domains shown)
VH: EVQLLESGGGLVQPGGSLRLSCAASGFTFSSQAMSWVRQAPGKGLEWVSAISGSGGGTYYADSVKGRFTISRDNSKNTLYLQMNSLRAEDTAVYYCAKDRRFGEFDPWGQGTLVTVSS
VL: QSALTQPASVSGSPGQSITISCTGTSSDVGTYNLVSWYQQHPGKAPKLMIYEGSQRPSGVSNRFSGSKSGNTASLTISGLQAEDEADYYCCSYAGSSSFVVFGGGTKLTVL
B15: SARS-CoV-2 variant 1-33 (antibody, V domains shown)
VH: EVQLLESGGGLVQPGGSLRLSCAASGFTFSSYAMIWVRQAPGKGLEWVSAISGSGGSTFYADSVKGRFTISRDNSKNTLYLQMNSLRAEDTAVYYCTRPPYGDYGDYWGQGTLVTVSS
VL: QSALTQPASVSGSPGQSITISCTGTSSDVGSYNLLSWYQQHPGKAPKLMIYEASKRPSGVSNRFSGSKSGNTASLTISGLQAEDEADYYCCSYAGSRTPVVFGGGTKLTVL
B16: SARS-CoV-2 variant 1-41 (antibody, V domains shown)
VH: EVQLLESGGGLVQPGGSLRLSCAASGFTFSSYDMSWVRQAPGKGLEWVSVISGSGGSTYYADSVKGRFTISRDNSKNTLYLQMNSLRAEDTAVYYCAKGPLVGWYFDLWGQGTLVTVSS
VL: QSALTQPASVSGSPGQSITISCTGTSSDIGSYNLVSWYQQHPGKAPKLMIYEGTKRPSGVSNRFSGSKSGNTASLTISGLQAEDEADYYCCSYAGSRTYVFGGGTKLTVL
B17: SARS-CoV-2 variant 1-5 (antibody, V domains shown)
VH: EVQLLESGGGLVQPGGSLRLSCAASGFTFSSQAMSWVRQAPGKGLEWVSAISGSGGGTYYADSVKGRFTISRDNSKNTLYLQMNSLRAEDTAVYYCAKDRRFGEFDPWGQGTLVTVSS
VL: QSALTQPASVSGSPGQSITISCTGTSSGVGSYNLVSWYQQHPGKAPKLMIYEASKRPSGVSNRFSGSKSGNTASLTISGLQAEDEADYYCCSYAGSYTFAVFGGGTKLTVL
B18: SARS-CoV-2 variant 1-3 (antibody, V domains shown)
VH: EVQLLESGGGLVQPGGSLRLSCAASGFTFSSQAMSWVRQAPGKGLEWVSAISGSGGGTYYADSVKGRFTISRDNSKNTLYLQMNSLRAEDTAVYYCAKDRRFGEFDPWGQGTLVTVSS
VL: QSALTQPASVSGSPGQSITISCTGISSDVGSYNLVSWYQQHPGKAPKLMIYEGTKRPSGVSNRFSGSKSGNTASLTISGLQAEDEADYYCCSYAGSSSFVVFGGGTKLTVL
B19: SARS-CoV-2 variant 1-31 (antibody, V domains shown)
VH: EVQLLESGGGLVQPGGSLRLSCAASGFTFSSYAMNWVRQAPGKGLEWVSAISGSGGSTFYADSVKGRFTISRDNSKNTLYLQMNSLRAEDTAVYYCTRPPYGDYGDYWGQGTLVTVSS
VL: QSALTQPASVSGSPGQSITISCTGTSSDVGKYNLVSWYQQHPGKAPKLMIYEGSQRPSGVSNRFSGSKSGNTASLTISGLQAEDEADYYCCSYAGSRTPVVFGGGTKLTVL
B20: SARS-CoV-2 variant 1-9 (antibody, V domains shown)
VH: EVQLLESGGGLVQPGGSLRLSCAASGFTFSSYDMSWVRQAPGKGLEWVSVISGSGGSTYYADSVKGRFTISRDNSKNTLYLQMNSLRAEDTAVYYCAKGPLVGWYFDLWGQGTLVTVSS
VL: QSALTQPASVSGSPGQSITISCTGTSSDVGDYNLVSWYQQHPGKAPKLMIYEGSNRPSGVSNRFSGSKSGNTASLTISGLQAEDEADYYCCSYAGSSSFVVFGGGTKLTVL
B21: SARS-CoV-2 variant 1-28 (antibody, V domains shown)
VH: EVQLLESGGGLVQPGGSLRLSCAASGFTFSSYGMSWVRQAPGKGLEWVSAISGSGGGTYYADSVKGRFTISRDNSKNTLYLQMNSLRAEDTAVYYCASSSSWQFDYWGQGTLVTVSS
VL: QSALTQPASVSGSPGQSITISCTGTSSGVGSYNLVSWYQQHPGKAPKLMIYEGSQRPSGVSNRFSGSKSGNTASLTISGLQAEDEADYYCCSYAGSSTHYVFGGGTKLTVL

biological target: T1, Acro COVID S1 (S1N-C82E8) (SARS-CoV-2, UniProt P0DTC2 16-685); assay: phage ELISA
T1 construct: domain: S1 (subunit 1)

In order of rising “specificity ELISA, fold over background” value:
1. B14  1 fold over background
2. B21  1 fold over background
3. B1  1.1 fold over background
4. B12  1.5 fold over background
5. B17  1.5 fold over background
6. B18  1.6 fold over background
7. B9  1.8 fold over background
8. B16  4.5 fold over background
9. B5  5.1 fold over background
10. B13  6.8 fold over background
11. B15  7.1 fold over background
12. B20  10.7 fold over background
13. B7  11.5 fold over background
14. B11  12 fold over background
15. B6  12.9 fold over background
16. B10  16.8 fold over background
17. B8  17.4 fold over background
18. B4  19.5 fold over background
19. B2  22.7 fold over background
20. B19  30.4 fold over background
21. B3  32.7 fold over background
